In patent US20040110922A1 one finds % reduction in p24 in PMBC, ID90 (nM), 90% reduction of p24 production in PMBC and ID50 (nM), protection of MT-2 cells from virus-induced cell killing data, which are given here for one substance.

What all share (test): cell-based or functional assay
The target in test [1] is gp120 of HIV-1 clade C primary isolate DU151 (R5), on virus (HIV-1 DU151).
In test [2] the target is gp120 of HIV-1 clade B primary isolate JR-FL, on virus (HIV-1 JR-FL).
Test [3] concerns the target gp120 of HIV-1 clade C primary isolate DU368 (R5), on virus (HIV-1 DU368).
The target in test [4] is gp120 of HIV-1 clade B primary isolate PVO, on virus (HIV-1 PVO).
For test [5], the target named is gp120 of HIV-1 IIIB (laboratory strain, on virus) (HIV-1 IIIB).
Test [6] addresses gp120 of HIV-1 clade C primary isolate DU179 (R5/X4), on virus (HIV-1 DU179).
For test [7], the target named is gp120 of HIV-1 MN (laboratory strain, on virus) (HIV-1 MN).
Test [8] concerns the target gp120 of HIV-1 clade B primary isolate Bal, on virus (HIV-1 Bal).
Test [9] deals with gp120 of HIV-1 clade B primary isolate GV, on virus (HIV-1 GV).
In test [10] the target is gp120 of HIV-1 clade C primary isolate DU422 (R5), on virus (HIV-1 DU422).
For test [11], the target named is gp120 of HIV-1 clade B primary isolate P15, on virus (HIV-1 P15).

Regarding “product of clone 611-2, CD4(V1 + V2)-hIgG1 (from UniProt P01730 26-203) (Fc fusion)”, the % reduction in p24 in PMBC at 890 nM was 63% in [1]; 100% in test [2]; 53% in [3]; 96% in test [4]; 78% in test [6]; 100% in [8]. In addition, the results for the % reduction in p24 in PMBC at 890 nM in test [9], in test [10] and in [11] were 88%, 9% and 94%, respectively. Moreover, the ID90 (nM), 90% reduction of p24 production in PMBC in test [2] amounted to 8.2 nM; in [8], 5.3 nM. Moreover, the ID50 (nM), protection of MT-2 cells from virus-induced cell killing in [5] is 0.79 nM; in [7], below 0.41 nM.
